Source: patent US20250353912A1 (NEW YORK UNIVERSITY, published 2025)
Where a chain is given by its changes, count along the chain named.

B1: EO_Q01 (scFv, V domains shown)
VH: EVQLVESGGGLVQPGGSLRLSCAASGFTISSSYIHWVRQAPGKGLEWVAYISPSYGSTSYADSVKGRFTISADTSKNTAYLQMNSLRAEDTAVYYCARELVTMTADYWGQGTLVTVSS
VL: DIQMTQSPSSLSASVGDRVTITCRASQSVSSAVAWYQQKPGKAPKLLIYSASSLYSGVPSRFSGSRSGTDFTLTISSLQPEDFATYYCQQYSHWPITFGQGTKVEIKR
notes: yeast-display scFv
B2: EO_Q02 (scFv, V domains shown)
VH: B1 VH with L100Y, V101T, T104S, A105I
VL: B1 VL with H93A, I96E
notes: yeast-display scFv
B3: EO_Q03 (scFv, V domains shown)
VH: B1 VH with L100S, T104S
VL: B1 VL with H93A
notes: yeast-display scFv
B4: EO_Q04 (scFv, V domains shown)
VH: B1 VH with L100S, A105K
VL: B1 VL with H93D
notes: yeast-display scFv
B5: EO_Q05 (scFv, V domains shown)
VH: B1 VH with L100E, T104S, A105I
VL: B1 VL with S92A, H93E
notes: yeast-display scFv
B6: EO_Q06 (scFv, V domains shown)
VH: B1 VH with L100S, V101I, A105K
VL: B1 VL
notes: yeast-display scFv
B7: EO_Q07 (scFv, V domains shown)
VH: B1 VH with V101T, T104S, A105I
VL: B1 VL with S92A, H93K
notes: yeast-display scFv
B8: EO_Q08 (scFv, V domains shown)
VH: B1 VH with V101T, T102E, A105T
VL: B1 VL with H93S
notes: yeast-display scFv
B9: EO_Q09 (scFv, V domains shown)
VH: B1 VH with L100E
VL: B1 VL
notes: yeast-display scFv
B10: EO_Q10 (scFv, V domains shown)
VH: B1 VH with V101I, T102E, A105P
VL: B1 VL with H93G
notes: yeast-display scFv
B11: EO_Q11 (scFv, V domains shown)
VH: B1 VH with A105I
VL: B1 VL with H93G
notes: yeast-display scFv
B12: EO_Q12 (scFv, V domains shown)
VH: B1 VH with V101T, T104S, A105I
VL: B1 VL with S92A, H93S
notes: yeast-display scFv
B13: EO_Q13 (scFv, V domains shown)
VH: B1 VH with V101T
VL: B1 VL
notes: yeast-display scFv
B14: EO_Q14 (scFv, V domains shown)
VH: B1 VH with L100S, V101I, T104S, A105P
VL: B1 VL with H93S
notes: yeast-display scFv
B15: EO_Q15 (scFv, V domains shown)
VH: B1 VH with V101I, T102E, A105T
VL: B1 VL
notes: yeast-display scFv
B16: EO_Q18 (scFv, V domains shown)
VH: B1 VH with L100Y, T104A, A105L
VL: B1 VL with H93A, I96E
notes: yeast-display scFv
B17: EO_Q20 (scFv, V domains shown)
VH: B1 VH with L100E, A105P
VL: B1 VL with H93D
notes: yeast-display scFv
B18: EO_Q22 (scFv, V domains shown)
VH: B1 VH with L100Y, T104A, A105L
VL: B1 VL
notes: yeast-display scFv
B19: EO_Q23 (scFv, V domains shown)
VH: B1 VH with L100Y, T104A, A105L
VL: B1 VL with I96E
notes: yeast-display scFv
B20: EO_Q24 (scFv, V domains shown)
VH: B1 VH with L100Y, T104A, A105L
VL: B1 VL with H93E, I96E
notes: yeast-display scFv
B21: IBA1-4 (antibody, V domains shown)
VH: EVQLVESGGGLVQPGGSLRLSCAASGFTVSSSSIHWVRQAPGKGLEWVASIYSYSGSTYYADSVKGRFTISADTSKNTAYLQMNSLRAEDTAVYYCARQYSSSYYVWPGMDYWGQGTLVTVSS
VL: DIQMTQSPSSLSASVGDRVTITCRASQSVSSAVAWYQQKPGKAPKLLIYSASSLYSGVPSRFSGSRSGTDFTLTISSLQPEDFATYYCQQYHYWASLITFGQGTKVEIKR
notes: phage-display clone
B22: IBA1-7 (antibody, V domains shown)
VH: EVQLVESGGGLVQPGGSLRLSCAASGFTLSSSSIHWVRQAPGKGLEWVASISSYYGSTSYADSVKGRFTISADTSKNTAYLQMNSLRAEDTAVYYCARMHYSWQEYYSYDWGMDYWGQGTLVTVSS
VL: B21 VL with Y91S, H92Y, Y93W, A95K, I98V
notes: phage-display clone
B23: IBA1-8 (antibody, V domains shown)
VH: EVQLVESGGGLVQPGGSLRLSCAASGFTISYSSIHWVRQAPGKGLEWVASIYPSYGSTSYADSVKGRFTISADTSKNTAYLQMNSLRAEDTAVYYCARWQGYYQPALDYWGQGTLVTVSS
VL: B1 VL with Y91P, S92Y, H93Y, W94P, P95L
notes: phage-display clone
B24: IBA1-13 (antibody, V domains shown)
VH: EVQLVESGGGLVQPGGSLRLSCAASGFTLSSSSIHWVRQAPGKGLEWVASIYSSYGYTYYADSVKGRFTISADTSKNTAYLQMNSLRAEDTAVYYCARYYYYWYGGMDYWGQGTLVTVSS
VL: DIQMTQSPSSLSASVGDRVTITCRASQSVSSAVAWYQQKPGKAPKLLIYSASSLYSGVPSRFSGSRSGTDFTLTISSLQPEDFATYYCQQGHDMNPVTFGQGTKVEIKR
notes: phage-display clone
B25: IBA1-19 (antibody, V domains shown)
VH: EVQLVESGGGLVQPGGSLRLSCAASGFTFSYSSIHWVRQAPGKGLEWVASIYPSSGYTSYADSVKGRFTISADTSKNTAYLQMNSLRAEDTAVYYCARGWWYWMAWDYAMDYWGQGTLVTVSS
VL: B21 VL with Y91S, H92W, Y93M, W94S, A95D
notes: phage-display clone
B26: IBA1-21 (antibody, V domains shown)
VH: EVQLVESGGGLVQPGGSLRLSCAASGFTISSSSIHWVRQAPGKGLEWVASISSYYGYTSYADSVKGRFTISADTSKNTAYLQMNSLRAEDTAVYYCARYYSYSSGYGYYDYFDWGAMDYWGQGTLVTVSS
VL: B21 VL with Y91M, H92Q, W94S, A95G, S96W
notes: phage-display clone
B27: AMRA3-22 (antibody, human IgG1, V domains shown)
VH: EVQLVESGGGLVQPGGSLRLSCAASGFTFYSSSIHWVRQAPGKGLEWVAYIYSSSGYTSYADSVKGRFTISADTSKNTAYLQMNSLRAEDTAVYYCARPVNYYYQGALDYWGQGTLVTVSS
VL: B1 VL with Y91S, S92D, H93M, W94P
notes: phage-display clone; purified as human IgG1/kappa; also called AMRA3-22 hIgG1
B28: AMRA11-15 (antibody, human IgG1, V domains shown)
VH: EVQLVESGGGLVQPGGSLRLSCAASGFTVYYSSIHWVRQAPGKGLEWVASIYSYYGSTYYADSVKGRFTISADTSKNTAYLQMNSLRAEDTAVYYCARGEKWALDYWGQGTLVTVSS
VL: B24 VL with G91F, H92D, D93F, M94Q, N95Y, P96L, V97I
notes: phage-display clone; purified as human IgG1/kappa
B29: AMRA311-16 (antibody, human IgG1, V domains shown)
VH: EVQLVESGGGLVQPGGSLRLSCAASGFTISSSSIHWVRQAPGKGLEWVAYISSYSGYTYYADSVKGRFTISADTSKNTAYLQMNSLRAEDTAVYYCARYWYGHYHSYFGLDYWGQGTLVTVSS
VL: B1 VL with Y91S, H93S, W94S, P95L
notes: phage-display clone; purified as human IgG1/kappa; also called AMRA311-16 hIgG1
B30: AMRA311-17 (antibody, human IgG1, V domains shown)
VH: EVQLVESGGGLVQPGGSLRLSCAASGFTISSSSIHWVRQAPGKGLEWVASISSYSGSTYYADSVKGRFTISADTSKNTAYLQMNSLRAEDTAVYYCARYPYGSHVYTGLDYWGQGTLVTVSS
VL: B1 VL with Y91S, H93S, W94S, P95L
notes: phage-display clone; purified as human IgG1/kappa; also called AMRA311-17 hIgG1
B31: AMRA3-7 (antibody, human IgG1, V domains shown)
VH: EVQLVESGGGLVQPGGSLRLSCAASGFTFSSYSIHWVRQAPGKGLEWVASIYSSYGYTSYADSVKGRFTISADTSKNTAYLQMNSLRAEDTAVYYCARGGWYPAMDYWGQGTLVTVSS
VL: B21 VL with Y91I, H92S, W94V, A95Y
notes: phage-display clone; purified as human IgG1/kappa; also called AMRA3-7 hIgG1

Legend:
[1] = biological target: T1, HLA-A*02:01 in complex with the EGFR peptide … conjugated with osimertinib (human, osimertinib covalently bound to Cys); experiment: yeast display
T1 construct: also called HLA-A*02:01_EGFR-osimertinib; osimertinib-EGFR/HLA-A*02

[2] = biological target: T2, HLA-A*01:01 in complex with the BTK peptide … conjugated with Ibrutinib (human, ibrutinib covalently bound to Cys); experiment: phage display selection; MBBA
T2 construct: also called HLA-A*01:01_BTK-Ibrutinib

[3] = biological target: T3, HLA-A*03:01 in complex with the KRAS (wild type) peptide … (human); experiment: MBBA titration of purified IgG (FIG. 11)
T3 construct: also called HLA-A*03:01_WTRAS

[4] = biological target: T4, HLA-A*11:01 in complex with the KRAS (wild type) peptide … (human); experiment: MBBA titration of purified IgG (FIG. 11)
T4 construct: also called HLA-A*11:01_WTRAS

Row | Binder | binding result [1] | further results
1 | B1 | binds | 
2 | B2 | binds | 
3 | B3 | binds | 
4 | B4 | binds | 
5 | B5 | binds | 
6 | B6 | binds | 
7 | B7 | binds | 
8 | B8 | binds | 
9 | B9 | binds | 
10 | B10 | binds | 
11 | B11 | binds | 
12 | B12 | binds | 
13 | B13 | binds | 
14 | B14 | binds | 
15 | B15 | binds | 
16 | B16 | binds | 

Row | Binder | binding result [1] | further results
17 | B17 | binds | 
18 | B18 | binds | 
19 | B19 | binds | 
20 | B20 | binds | 
21 | B21 |  | binding result [2]: binds
22 | B22 |  | binding result [2]: binds
23 | B23 |  | binding result [2]: binds
24 | B24 |  | binding result [2]: binds
25 | B25 |  | binding result [2]: binds
26 | B26 |  | binding result [2]: binds
27 | B27 |  | binding result [3]: no binding; binding result [4]: no binding
28 | B28 |  | binding result [3]: no binding; binding result [4]: no binding
29 | B29 |  | binding result [3]: no binding; binding result [4]: no binding
30 | B30 |  | binding result [3]: no binding; binding result [4]: no binding
31 | B31 |  | binding result [3]: no binding; binding result [4]: no binding
